Test results as given in US20230002798A1, “PROCESS FOR THE PREPARATION OF A FERMENTABLE SUGAR COMPOSITION AND THE FERMENTATION THEREOF” (WeissBioTech GmbH, priority 2019, published 2023).

Legend:
[1] = SSF of maltodextrins with added isomaltose, 24 h (Example 1); design: species or system Yeast (Deltaferm® AL-18); settings: SSF 24 h, maltodextrin + 20 g/L isomaltose, enzyme 187.5 kU per ton
Procedure: Quantification of ethanol yield Ethanol was quantified via HPLC. Samples were taken at the end of the SSF or during SSF at set time points. Samples were centrifuged for 1 min at 17,000 xg and sterile filtered (0.2 μm). The samples were frozen at −80° C. prior to measurements. Ethanol was determined with an Aminex 87C column (Bio-Rad Laboratories, Inc., US) on a Shimadzu HPLC system.
For simultaneous saccharification and fermentation (abbreviated SSF), the oligo-1,6-glucosidases—either Agl1 or Gth—were used as crude Bacillus extract. Glucidex® Maltodextrin 12 (Roquette, FR) was dissolved in SSF-medium (5 g/L yeast extract, 5 g/L peptone, 1 g/L K2HIPO4, 0.5 g/L Mg2SO4 in 50 mM citrate buffer, pH 4.8) at 300 g/L. Panose, isomaltose, isomaltotriose, maltose, maltotriose, or trehalose was added at 20 g/L. As a positive control, 20 g/L glucose was added instead of the respective sugar. The SSF medium containing starch hydrolysate (maltodextrins) and sugars was sterile filtered (0.2 μm). Yeast (Deltaferm® AL-18, WeissBioTech GmbH, Ascheberg, Germany) was grown in YINaC medium (50 g/L dextrose, 5 g/L yeast extract, 5 g/L peptone, 1 g/L K2HPO4, 0.5 g/L Mg2SO4*7H2O, 2 g/L NH4Cl in 50 mM sodium citrate, pH 4.8) for 2 days at 37° C. and harvested by centrifugation for 15 min at 5100 rpm and 8° C. […]

[2] = format: biochemical; settings: pH 5
Procedure: For activity measurements, the enzyme Agl1 was incubated with 10 mM and 50 mM panose, isomaltose, isomaltotriose, maltose, maltotriose, and trehalose for 10 min at 37° C. in Britton-Robertson buffer, pH 5. The enzyme Gth was incubated with 15 mM panose, 10 and 50 mM isomaltose, and 10, 50 and 100 mM maltotriose and trehalose for 10 min at 37° C. in Britton-Robertson buffer, pH 5. The reaction was stopped with 60 μL of 1 M NaOH, followed by addition of 60 μL of 1 M HCL. The amount of produced glucose was quantified using a standardized glucose assay kit (D-Glucose HK Assay Kit, Megazyme u.c. IRE). Glucose concentration was determined as specified in the instructions. Units are defined as the amount of enzyme required to produce one μmol of glucose per minute.

B1: Agl1: oligo-1,6-glucosidase of Bifidobacterium breve UCC2003, amino acid sequence SEQ ID NO:1, expressed in Bacillus subtilis (protein)
chain: MMTTFNRAIIPDAIRTNGATPNPWWSNAVVYQIYPRSFQDTNGDGFGDLKGITSRLDYLADLGVDVLWLSPVYKSPQDDNGYDISDYQDIDPLFGTLDDMDELLAEAHKRGLKVVMDLVVNHTSDEHAWFEASKNKDDEHADWYWWRPARPGTTPGEPGSEPNQWGSYFGGSAWEYCPERGEYYLHQFSKKQPDLNWENPAVRRAVYDMMNWWLDRGIDGFRMDVITLISKRTDANGRLPGEYGSELDDLPVGEEGYSNPNPFCADGPRQDEFLKEMRREVFAGREGFLTVGEAPGITPVRNEHITNPANGELDMLFLFDHVDFDCDGVKWKPLPLDLPGFKRIMAGYQTAVENVGWASLFTGNHDQPRVVSRWGDDSSEESRVRSAKALGLMLHMHRGTPYVYQGEELGMTNAHFTSLDQYRDLESLNAYRQRVEEAKVQSPESMLAGIAARGRDNSRTPMQWDGSAYAGFTAPDAATEPWISVNPNHAEINAAGEFDDPDSVYAFYKKLIALRHNSSIVAAGEWQLIDADDAHVYAFTRTLGNERLLVVVNLSGRTVDLPRESTELIAGGVTEPDIILSTYDAPHTVVSLANRELDPWEAAAVQL
modifications: Bifidobacterium breve UCC2003; ACM89182.1 alpha-glucosidase 1
ethanol concentration increase by % compared to the negative control [1]: 74%
ethanol concentration increase compared to the negative control [1]: 0.98 percentage points (v/v)
substrate degradation (activity on trehalose) [2]: breaks down trehalose
